Assay results: paper doi:10.1101/2020.04.26.062372

Assays:
[1] = target: GLP-1R-SmBiT (glucagon-like peptide-1 receptor tagged at the C-terminus with SmBiT) (UniProt P43220); test: split reporter
[2] = target: GIPR-SmBiT (glucose-dependent insulinotropic polypeptide receptor tagged at the C-terminus with SmBiT) (UniProt P48546); test: split reporter
Sequence of UniProt P48546 (P48546 22-466): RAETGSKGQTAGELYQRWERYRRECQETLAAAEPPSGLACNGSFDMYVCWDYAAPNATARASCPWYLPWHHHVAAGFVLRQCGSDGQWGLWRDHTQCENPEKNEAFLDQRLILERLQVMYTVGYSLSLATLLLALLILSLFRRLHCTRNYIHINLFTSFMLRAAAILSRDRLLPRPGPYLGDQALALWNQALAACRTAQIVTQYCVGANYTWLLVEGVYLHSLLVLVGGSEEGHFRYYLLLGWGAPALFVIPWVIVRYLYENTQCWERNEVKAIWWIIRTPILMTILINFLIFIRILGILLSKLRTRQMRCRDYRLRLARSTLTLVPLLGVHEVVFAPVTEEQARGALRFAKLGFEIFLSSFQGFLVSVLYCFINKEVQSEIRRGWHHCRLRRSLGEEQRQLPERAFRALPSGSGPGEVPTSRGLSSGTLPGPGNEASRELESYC

Sequence of UniProt P43220 (P43220 24-463): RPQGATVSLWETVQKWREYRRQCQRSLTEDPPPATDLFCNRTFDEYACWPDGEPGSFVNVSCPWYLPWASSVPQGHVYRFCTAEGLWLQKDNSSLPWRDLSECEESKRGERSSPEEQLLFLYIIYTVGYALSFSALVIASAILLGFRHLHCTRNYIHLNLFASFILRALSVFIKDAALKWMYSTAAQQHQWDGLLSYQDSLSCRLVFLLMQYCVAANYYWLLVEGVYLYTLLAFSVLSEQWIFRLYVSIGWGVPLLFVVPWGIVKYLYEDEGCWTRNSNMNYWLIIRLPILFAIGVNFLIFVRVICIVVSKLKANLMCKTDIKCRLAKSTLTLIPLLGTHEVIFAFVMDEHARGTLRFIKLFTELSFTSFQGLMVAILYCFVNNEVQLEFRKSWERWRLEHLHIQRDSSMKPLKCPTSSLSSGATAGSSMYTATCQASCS

t1/2 of ligand-induced recruitment [1]: 1.5 min
t1/2 of ligand-induced recruitment [2]: 7.1 min
Substance: LgBiT-mini-Gs
